In patent US20060068465:
Positions count from the first letter of the chain named.

B1: synaptic USP (synUSP), full length (protein)
chain: MAPRLQLEKAAWRWAETVRPEEVSQEHIETAYRIWLEPCIRGVCRRNCRGNPNCLVGIGEHIWLGEIDENSFHNIDDPNCERRKKNSFVGLTNLGASCYVNTFLQVWFLNLELRQALYLCPSTCSDYTKGDGIRGGKDYEPQTICEHLQYLFALLQNSNRRYIDPSGFVKALGLDTGQQQDAQESSKLFMSLLEDTLSKQKNPDVRNVVQQQFCGEYAYVTVCSQCGRESKLVSKFYELELNIQGHKQLTDCISEFLKEERLEGDNRYFCENCQSKQNATRKIRLLSLPCTLNLQLMRFVFDRQTGHKKKLNAYIGFSESLDMEPYVEHKGGSFVYELSAVLIHRGVSAYSGHYIAHVKDPQSGDWYKFNDEDIEKMEGKKLQLGIEEDLTEPSKSQTRKPKCGKGTHCSRNAYMLVYRLQTQEKNHTMVQVPAFLQELVDRDNSKFEEWCVEMAEMRRQSVDKGRAKHEEVKELYQRLPAGAEPYEFVSLEWLQKWLDESTPTKPIDNNACLCSHDKLHPDKISIMKRISEYAADIFYSRYGGGPRLTVKALCKDCVVERCRILRLKNQLNEDYKTVNNLLKATMKGSDGFWVGKSSLRSWRQLALEQLDEQDGEAEQSNGKINGSPFSKDESKEEKKEEEEELNFNEDILCPHGELSISENERRLVSQEAWSKLQQYFPKAPEFPSYKECCSQCKILEREGEENEALHKMIAKEQKTSLPNLFQDKNRPCLSNWPEDTDALYIVSHFFLDEWRKFVRKPARSTPVSSVGNAALLCPHGGLMFTFPSLTKEDSKLIALIWPSEWQMIQKLFVVDKVIKITRIEVGDVNPSQTQYISEPNLCPDCREGLLCQQQKDLREYTQATIYVHKVVDNKKVMKDSAPELNVSSSETEEDKEEAKPDGEKDPDFNQSNGGTKRQKTSQQGYVAYQKQVIRRSTRHRKVRGEKALLVSANQTLKELKIQIMHAFSVAPFDQNLSIDGKILNDDCATLGTLGVIPESVILLKADEPIADYAAMDDVMQVCMPEEGFKGTGLLGH
B2: synUSP in which Cys98 was replaced with Ala (protein)
chain: B1 chain with C98A
B3: yeast UBP2 (protein)
chain: MPNEDNELQKAIENHHNQLLNQDKENADRNGSVIEDLPLYGTSINQQSTPGDVDDGKHLLYPDIATNLPLKTSDRLLDDILCDTIFLNSTDPKVMQKGLQSRGILKESMLSYSTFRSSIRPNCLGSLTDQVVFQTKSEYDSISCPKYNKIHVFQAVIFNPSLAEQQISTFDDIVKIPIYHLKVSVKVRQELERLKKHVGVTQFHSLDHLHEYDRVDLSTFDSSDPNLLDYGIYVSDDTNKLILIEIFKPEFNSPEEHESFTADAIKKRYNAMCVKNESLDKSETPSQVDCFYTLFKIFKGPLTRKSKAEPTKTIDSGNLALNTHLNPEWLTSKYGFQASSEIDEETNEIFTEYVPPDMVDYVNDLETRKIRESFVRKCLQLIFWGQLSTSLLAPNSPLKNTKSVKGMSSLQTSFSTLPWFHLLGESRARILLNSNEQTHSPLDAEPHFINLSVSHYYTDRDIIRNYESLSSLDPENIGLYFDALTYIANRKGAYQLIAYCGKQDIIGQEALENALLMFKINPKECNISELNEATLLSIYKYETSNKSQVTSNHLTNLKNALRLLAKYTKSDKLKFYVDHEPYRALSQAYDTLSIDESVDEDIIKTAYSVKINDSPGLKLDCDRALYTIAISKRSLDLFNFLTEECPQFSNYYGPEKLDYQEALKLLQVNENASDETILKIFKQKWFDENVYEPDQFLILRAALTKISIERNSTLITNFLLTGTIDPNSLPPENWPTGINNIGNTCYLNSLLQYYFSIAPLRRYVLEYQKTVENFNDHLSNSGHIRRIGGREISRGEVERSIQFIYQLRNLFYAMVHTRERCVTPSKELAYLAFAPSNVEVEFEVEGNKVVDQTGVLSDSKKETTDDAFTTKIKDTSLIDLEMEDGLNGDVGTDANRKKNESNDAEVSENEDTTGLTSPTRVAKISSDQLENALEMGRQQDVTECIGNVLFQIESGSEPIRYDEDNEQYDLVKQLFYGTTKQSIVPLSATNKVRTKVERFLSLLINIGDHPKDIYDAFDSYFKDEYLTMEEYGDVIRTVAVTTFPTILQVQIQRVYYDRERLMPFKSIEPLPFKEVIYMDRYADTENPLLLAKKKETEEMKQKLKVMKNRQRELLSRDDSGLTRKDAFLESIKLLESDTIKKTPLKIEAANDVIKTLRNNVQNIDNELMKLYNDINSLEEKISHQFDDFKEYGYSLFSVFIHRGEASYGHYWIYIKDRNRNGIWRKYNDETISEVQEEEVFNFNEGNTATPYFLVYVKQGQEGDIEPLKRILK

Molecular target: GST-Ub52 fusion protein [GST: P08515]
Sequence (P08515 whole entry, looked up, the tested form may be a part): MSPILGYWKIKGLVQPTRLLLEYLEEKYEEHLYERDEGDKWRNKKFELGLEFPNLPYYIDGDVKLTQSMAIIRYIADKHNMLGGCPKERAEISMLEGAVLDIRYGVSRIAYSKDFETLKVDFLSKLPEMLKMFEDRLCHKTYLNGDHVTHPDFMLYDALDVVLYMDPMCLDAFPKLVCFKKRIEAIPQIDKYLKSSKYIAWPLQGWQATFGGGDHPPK

Row | Protein | USP activity: cleavage of GST-Ub52 on co-expression in E. coli, SDS-PAGE with Coomassie staining
1 | B1 | the amount of the GST-Ub52 protein of 45 kDa decreased, and the proteolysis product of 30 kDa markedly increased along with it
2 | B2 | The activity of synUSP disappeared by either replacing Cys98 with Ala
3 | B3 | The GST-Ub52 protein was degraded to a band of 30 kDa by the co-expression of yeast USP2
